The text below walks through data of a protein production outcome set (Wang et al. 2014).
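Further: failed if final PepcDB status was selected cloned or expressed and not failed if soluble or beyond.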

The series in a line: label from the status in PepcDB records.
As for “MEQFLDNIKDLEVTTVVRAQEALDKKETATFFIGRKTCPYCRKFAGTLSGVVAETKAHIYFINSEEPSQLNDLQAFRSRYGIPTVPGFVHITDGQINVRCDSSMSAQEIKDFAGL”, the protein production entry was “not failed”.
Under “MEQKSKFSSATVFSGKLLIASLFILSGILLFARNMGWITAELFNIIVSWHSLLIILGIYSMIRRHFVGGIILVLVGVYFLLGGLSWLPENSQAMVWPLALIIAGVLFLFKSRHRGPWDDKQRMFRDHREWMKHGHHGHAGMNFTDNQQQCESEDGFLRSDNTFGAARHVVLDELFKGAVVRTSCGGTTIDLRHTHIAPGETYIDIDCSWGGVEIYVPSDWKVVFKCNTFFGGCDDKRWQNGNINKESVLVIRGRLSFGGLEVKD” stands “failed”; under “MEQQEEKRKIKAYQRKSKRSKSGSSSIPLDLVSEILLRLPEKSVARFRCVSKPWSSITTEPYFINLLTTRSPRLLLCFKANEKFFVSSIPQHRQTFETWNKSHSYSQLIDRYHMEFSEEMNYFPPTESVNGLICFQESARLIVWNPSTRQLLILPKPNGNSNDLTIFLGYDPVEGKHKVMCMEFSATYDTCRVLTLGSAQKLWRTVKTHNKHRSDYYDSGRCINGVVYHIAYVKDMCVWVLMSFDVRSEIFDMIELPSSDVHKDVLIDYNGRLACVGREIIEKNGIRLWILEKHNKWSSKDFLAPLVHIDKSLSTNKFLLKGFTHAGEIIYVESMFHKSAKIFFYDPVRNTSRRFELKGFTDDEFVLSNEHGYTLHVFPNHVESQISFT”, “failed”.
In the case of “MEQSFFRELLHYQRPKDNPFRLVFAGLVMFSILFLGYINHQLLISSFGSLGIFTFLYYQPLPLKQLMTRLSVVGSYLFLGNLLGMLSTHIAWLIPIVVALVGFGGRFFFEVYDISKPGAFFGVMVTAMGASTSIPLAKIPFMSGCMLLGIGFSILFALVLHFTEKEISVPLAKRSLRERIYQHPEAPLDSIYYSFVLFFAVYISESLHLQNPYWLVVSCASILQGDNLRAIKQRNIQRIFGTTIGLVISAFLLNLALTTFESIVVITILFVTVEYFIRRNYGLAQFFTTPMALMLSLLVRQQYVITLIQFRFLGIVLGSLLGLSSSVAIHRCSNVL” it was “failed”; in that of “MEQTTIDGIALTLAGPVQLPLKWVGQDELLQQLLAAWMVIDDRDIPFSPRLIGKPGVGKTTLAYAAARRLGRPVYLFQATMDTRPEDLIITPVIGPDGKIQYAASSLVSAMVKGGVLILDEGNRMSEKAWASLAPLLDDRRYVESIITGLRVPAHRDFRIVVTMNEDASTFEVPEYIHSRLQPQIFIDFPEADEELMILKENLPFAPTRILKYVVDFLQRAHAADELYSVRDGINIARYALKMMAATERDAAELLPLAVERVLGDEALRYLALEHHHHHH”, “failed”; in that of “MERELGPWRLTFRVRGWLSDEVFGEISRYARYLGRDRGYGLFRIDPERLRGNGLTLWDAIASLEDLGVAVEEDLEALKRAAEEALRVVLELRGGWVYISSRVMLKPILEEEGLSLPYDREARAYRAPPIMYPRLREAFERRGLKVEDRVFPPSSRSLPRPVRFTGELRDYQEEALEAWRKAGGRGVIVLPTGAGKTVVAIAAVAWAGVWSLIVVYTRDHVRQWIDAFRRFTDAHSLVGAYYGEEKRLAPITVTTYQTAYRHIDRLAPLFPFLVFDEAHHIPADKFKRIASASPAPYRMGLSATIEREDGRHEEVYSLVGGVVYSSSPGELTRKGYLAPFVIRRVKVELEEEEKRLYEDLKRKYRILARGRSFEKILEDARRGDPTAIEAIRVNTRMKEIVQLSESKIRAVEKLVREELSRGSKVIVFTQYRRQAEEIARRTGALLLHGGLERRVREATLAKFRALKAGALVVTTVGDEGLDIPDANVGILVSGTGSRRQFIQRLGRLLRPGEGKRAVLYEVIARGTGEELQSRRRRGRG”, “failed”.
Under “MERGRSDMEMINNMANCLILLSKAHQNDTKSRVFACKTCNKEFPSFQALGGHRASHRRSAALEGHAPPSPKRVKPVKHECPICGAEFAVGQALGGHMRKHRGGSGGGGGRSLAPATAPVTMKKSGGGNGKRVLCLDLNLTPLENEDLKLELGRFIF” stands “failed”; under “MERIRWLYGFLACILIAILLAPLQIMAQGEFRTSDQPLVYYIPVEQEVERGLEAFLQRSLDSAVEEGADHIVLEINTPGGRVDAAGNMARALRETDIPITAYVIDQALSAGAYIALNADEIVMAPGSTMGSAAVIDSAGNAADEKAQSYWLAEMRNAAEYNDRDPKYALAMADRSIEIPELDISNEELLTLTASQALEVNYAEAIASNRAELLEHLQIDNAFEQEMEVSFAEKLARFVTNPLIIPILLSIGSLGLVLELYSPGFGVPGIMGISALLLFFFGHLIAGFAGYEAMILFIAGFLLILIEVFMPGFGLFGILGIAGMIGGMLLASFSTAWMLVSLGISAVVTTVVAIITFRYFGSRGPWKKMILTESTSSEKGYITNETRQELVGLIGQSLTPLRPSGSGLFGEERLDVVSEGGYIEQGRKIKVVSTSGSRIVVRETDELEHHHHHH”, “failed”; under “MERKINRREKEKEYEGKHNSLEDTDQGKNCKSTLMTLNVGGYLYITQKQTLTKYPDTFLEGIVNGKILCPFDADGHYFIDRDGLLFRHVLNFLRNGELLLPEGFRENQLLAQEAEFFQLKGLAEEVKSRWEKEQLTPRETTFLEITDNHDRSQGLRIFCNAPDFISKIKSRIVLVSKSRLDGFPEEFSISSNIIRFKYFIKSENGTRLVLKEDNTFVCTLETLKFEAIMMALKCGFRLLTSLDCSKGSIVHSDALHFIK”, “not failed”.
In the case of “MERKISDEECPVRKSMQIFAGKWTLLIIFQINRRIIRYGELKRAIPGISEKMLIDELKFLCGKGLIKKKQYPEVPPRVEYSLTPLGEKVLPIIDEIAKFGMENL”, the protein production result was “not failed”.
In the case of “MERKRYSKRYCKYTEAKISFIDYKDLDMLKHTLSERYKIMPRRLTGNSKKWQERVEVAIKRARHMALIPYIVDRKKVVDSPFKQH” it was “failed”.
With “MESAATAVVPPAAAATTATATDDNLQSSDSSSPADAVNRLIHAFSQRQQHLLDKTVPHVLYRWIACLCVVLIYIVRVYFVEGFYIITYAIGIYLLNLIIAFLSPQEDPEASLTSGGSLPTRRSDEYRPFVRRLPEFKFWLSIIRAFIIGFMMTFFEVFDVPVFWPILLFYWVMLFFLTMRKQIQHMIKYRYVPFSFGKKVCVSFSFLPSQN”, the protein production result was “failed”.
Under “MESGIFGEGGSLPPLPVLLRGLQDLGLLGKLDIARRATLTGISLCFSVFLQHIGIMWIQVRTMDGKETHTVNSLSRLTKVQELRKKIEELFHVEPQLQRLFYRGKQMEDGHTLFDYDVRLNDTIQLLVRQSLALPLSTKERDSELSDSDSGYGVGHSESDKSSTHGEGTADGDDKTVWEDTDLGLYKVNEYVDVRDNIFGAWFEAQVVQVQKKALSEEEPCSSSAIMAPEDDIMYHIKYDDYPEHGVDIVKAKNVRARARTVIPWEDLEVGQVVMANYNVDYPRKRGFWYDVEICRKRQTRTARELYGNVMLLNDSQLNNCRIIFVDEVLKIELPNERSPLIGSPSRRKSGPSCQYCKDDENKPCRKCACHICGGREAPEKQVLCDECDMAFHLYCLQPPLTCVPPEPEWYCPSCRTDSSEVVQAGEKLKKSKKKAKMASATSSSRRDWGKGMACVGRTTECTIVPANHFGPIPGVPVGTMWRFRVQVSESGVHRPHVAGIHGRSNDGAYSLVLAGGYEDDVDNGNFFTYTGSGGRDLSGNKRTAGQSSDQKLTNNNRALALNCHSPINEKGAEAEDWRQGKPVRVVRNMKGGKHSKYAPAEGNRYDGIYKVVKYWPEKGKSGFIVWRYLLRRDDTEPEPWTREGKDRTRQLGLTMQYPEGYLEALANKEKNRKRPAKALEQGPSSSKIGKSKRKSTGPATTSPRVSKKSKLEPYTLPLQQANLIKEDKGNAKLWDDVLSSLQDGPYQIFLSKVKEAFQCICCQELVFRPVTTVCQHNVCKDCLDRSFRAQVFSCPACRYDLDHSSPTRVNQPLQTILNQLFPGYGSGR” stands “failed”; under “MESGNVVNTQPELSGIIDGSKSYMYEQLWKLCAGPLCDIPKLGEKVYYFPQGHIELVEASTREELNELQPICDFPSKLQCRVIAIQLKVENNSDETYAEITLMPDTTQVVIPTQNQNQFRPLVNSFTKVLTASDTSVHGGFSVPKKHAIECLPPLDMSQPLPTQEILAIDLHGNQWRFRHIYRGTAQRHLLTIGWNAFTTSKKLVEGDVIVFVRGETGELRVGIRRAGHQQGNIPSSIVSIESMRHGIIASAKHAFDNQCMFIVVYKPRSSQFIVSYDKFLDVVNNKFNVGSRFTMRFEGDDFSERRSFGTIIGVSDFSPHWKCSEWRSLEVQWDEFASFPRPNQVSPWDIEHLTPWSNVSRSSFLKNKRSREVNEIGSSSSHLLPPTLTQGQEIGQQSMATPMNISLRYRDITEDAMTPSRLLMSYPVQPMAKLNYNNVVTPIEENITTNAVASFRLFGVSLATPSVIKDPVEQIGLEISRLTQEKKFGQSQILRSPTEIQSKQFSSTRTCTKVQMQGVTIGRAVDLSVLNGYDQLILELEKLFDLKGQLQARNQWEIAFTNNEEDKMLVGEDPWPEFCNMVKKIFIYSKEEVKNLKSRKSLSS”, “failed”; under “MESLPVLGVFFMVKTANVAVMPLFPRSQYRIIGQIGQGQFGRVYCAIHRTTGKMYALKDLEHRVFPTNKFLRELSYLLTLRHPNIVACHGLEYHPGGRYLVMDYCEGGTLRDIIDGDGDLCLAGKIDLLRQILLGLAQAHQHDIVHCDLKPENILLIPRAEGWQVKVSDFGIARLTAKTGNPNFSKGYTGSPAYMAPERFYGKFSVASDIYAVGILLYELIVGDRPFSGFPKALQAAHLNVRLTLPPEFPPLLAPIVQRALEKLPQRRFPNATAMASDLATVQKQILEQDPPRGNGYLYHHLAPAPLAFTATVKHSTPLLFPISHLTGAGLWLYLGNGAELYLWEYGDGNVEHHPLPRWALGLPGTIANLEVNQDQISLLIQGGEPGEWQFYQWRETLLGALSLPKPRINLRAERLLANLSPGGKTLAVVVGDRDSEKGHFQLWRTDHSLPVAAAVVIRWPDQLLTLDQNHGLLVQSQSTASYCHTIFFLFNRRGSLFPAFRLSFLVFQLVVNRYSRNHLFGLADNAPYTGILIRLQPLKVNRIALTIQPQFIEPFPWGYLLADRHGEVALLDYEGFLFGNFSLGETITAIAPMGRYLCLFATWQGNGGTLRLLDLGPQVENIIRQRQEKR”, “failed”.
Turning to “MESPGGSAPLLGLELCAAARDSAAMAGPGAPCDPCAPAAVWKRHIVRQLRHRDRTQKALFLELVPAYNHLLEKAELLAKFSEKLKSEPKDAISTRHEDWREEVSGTGPDQVSSPASLRVKWQQEKKGLQLVCGEMAYQVVKKSAALDTLQSQLEERQDRLEALQACVVQLQEARAQQSRQLEERQAENAAQREAYETLLQQAVHQEAALRRLQEEARDLLEQLVQRKARAAAERNLRNERRERANQALVSQELKKAAKRTVSISEIPNTLEDGTKEETVALAPAALPEFSESETCEKWKRPFRSASATSLTLSRCVDVVKGLLDFKKRRGHSVGGAPEQRYQSIPVCVSAQIPSQAQDVLDAHLSEVNAVCFGPNSSLLATGGADRLIHLWNVVGGRLEANQTLEGAGGSITSVDFDPSGSQVLAATYNQAAQLWKVGETQSKETLSGHKDKVTAAKFKLTRHQAVTGSRDRTVKEWDLGRAYCSRTINVLSYCNDVVCGDHIIISGHNDQKIRFWDSRGPHCIQVIPVQGRVTSLHLSYDQLHLLSCSRDNTLKVIDLRISNIRQVFRADGFKCSSDWTKAVFSPDRSYALAGSSNGDLYIWDVNTGKLETSLQGPHCTAVNAVAWCFSGNHVVSVDQGRKVVLWH”, the protein production result is reported as “failed”.
